This series concerns the molecule itself. Description: ELISA; two-site sandwich ELISA with the same mAb (30D12 or 4F2) as coated capture (5 ug/ml) and as biotinylated detector (1 ug/ml); recombinant hANKRD1 at 20 ng/ml; self-pairing read as dimer. (In general: ELISA stands for enzyme-linked immunosorbent assay.)

B1: recombinant human ankyrin repeat domain 1 (hANKRD1; OriGene Technologies) (natural protein)
chain: not shown
notes: human ankyrin repeat domain 1 (ANKRD1), full-length recombinant protein, N-terminal His-tagged, OriGene Technologies; expected mass 43 kDa; The preparation holds monomer (43 kDa) and dimer (86 kDa) on non-reducing SDS-PAGE; also called recombinant hANKRD1; source: bought: OriGene Technologies (bacterially derived recombinant preparation)
With B1, the binding result is on record as “binds”.
